# Assay: soluble on expression in E. coli; label from the status in PepcDB or PDB records
row,Sequence,soluble on expression in E. coli
1,MFVTLEVSDRAPLEATMSTPHHPVAIIGGGLGGLTAARVLHVNGIESAVFDLESGPEARTQGGMLDIHEENGQEAIRAAGLHDEFREIIHEGGQAMRLVGPDGTVRVATEDQGDGGRPEVDRGDLRGLLLNSLPDGTVHWRHKATGARALDDGRHEVTFADGSALTTDLLIGADGAWSRIRPLLSDAEPAYTGISFVESDLHEADTRHPRSAALVGGGFFISLGDRRGFLAHRETDGSLHVYTALRADEGWIDTVDFTDHAAAKAAVLAHFDGWDEGLRSLVAHAETITPRRIHALPVGHRWKRTPGVTLLGDAAHLMSPFAGEGANLAMYDGAELALALAAHPGDTEAALTQYEEGLFPRSEASAVESAGSLDTMFGTDGLEQMIGFFGAGRAEALEHHHHHH,not soluble
2,MQNNNEFKIGNRSVGYNHEPLIICEIGINHEGSLKTAFEMVDAAYNAGAEVVKHQTHIVEDEMSDEAKQVIPGNADVSIYEIMERCALNEEDEIKLKEYVESKGMIFISTLFSRAAALRLQRMDIPAYKIGSGECNNYPLIKLVASFGKPIILSTGMNSIESIKKSVEIIREAGVPYALLHCTNIYPTPYEDVRLGGMNDLSEAFPDAIIGLSDHTLDNYACLGAVALGGSILERHFTDRMDRPGPDIVCSMNPDTFKELKQGAHALKLARGGKKDTIIAGEKPTKDFAFASVVADKDIKKGELLSGDNLWVKRPGNGDFSVNEYETLFGKVAACNIRKGAQIKKTDIE,soluble
3,NKLAQKYDHQREQELREWIEGVTGRRIGNNFMDGLKDGIILCEFINKLQPGSVKKINESTQNWHQLENIGNFIKAITKYGVKPHDIFEANDLFENTNHTQVQSTLLALASMAKTKGNKVNVGV,soluble
4,GPGSMWGPNQEVAHPRHDGKSFYLPSTSAAGAAALGASLLPHSNLVCAPLNPHIAREPVDTATGDGDGTVRALLTRFRIENERLRDQVKAHVVQEALLTQRLQELSARNTALHLQDFRKRDNDAVVEKLKKQLEVKEMEVRALQLQVGELNGRISAYEEAISRPDHPQGLSANSMDRVRELICEALSSAGFLTRVANAVEHCHPSTHEVTDCPRSVEECTNHCLQAAMRGNKELPGETAARGHHVSCEELASALREEVLFCETVAVRVAAKLFMERSSADSSAKADRGTGLQHQEESAPPLARPTAECPAEAHELPQSDRRPRRKPAARPTVEDCEVQ,not soluble
5,MEYEWKPDEQGLQQILQLLKESQSPDTTIQRTVQQKLEQLNQYPDFNNYLIFVLTKLKSEDEPTRSLSGLILKNNVKAHFQNFPNGVTDFIKSECLNNIGDSSPLIRATVGILITTIASKGELQNWPDLLPKLCSLLDSEDYNTCEGAFGALQKICEDSAEILDSDVLDRPLNIMIPKFLQFFKHSSPKIRSHAVACVNQFIISRTQALMLHIDSFTENLFALAGDEEPEVRKNVCRALVMLLEVRMDRLLPHMHNIVEYMLQRTQDQDENVALEACEFWLTLAEQPICKDVLVRHLPKLIPVLVNGMKYSDIDIILLKGDVEEDETIPDSEQDIRPRFHRSRTVAQQHDEDGIEEEDDDDDEIDDDDTISDWNLRKCSAAALDVLANVYRDELLPHILPLLKELLFHHEWVVKESGILVLGAIAEGCMQGMIPYLPELIPHLIQCLSDKKALVRSITCWTLSRYAHWVVSQPPDTYLKPLMTELLKRILDSNKRVQEAACSAFATLEEEACTELVPYLAYILDTLVFAFSKYQHKNLLILYDAIGTLADSVGHHLNKPEYIQMLMPPLIQKWNMLKDEDKDLFPLLECLSSVATALQSGFLPYCEPVYQRCVNLVQKTLAQAMLNNAQPDQYEAPDKDFMIVALDLLSGLAEGLGGNIEQLVARSNILTLMYQCMQDKMPEVRQSSFALLGDLTKACFQHVKPCIADFMPILGTNLNPEFISVCNNATWAIGEISIQMGIEMQPYIPMVLHQLVEIINRPNTPKTLLENTAITIGRLGYVCPQEVAPMLQQFIRPWCTSLRNIRDNEEKDSAFRGICTMISVNPSGVIQDFIFFCDAVASWINPKDDLRDMFCKILHGFKNQVGDENWRRFSDQFPLPLKERLAAFYGV,soluble
6,MLGACVEKPSTLERVKEDGVLRVVTRNSPATYFQDRNGETGFEYELVKRFADDLGVELKIETADNLDDLFDQLGQPKGPVLAAAGLVSSEQRKQQVRFSHPYLEVTPQVIYRNGRSRPTTAQDLVGKHIMVLKGSTHAEQLAELKLKYPGIEYEESDAVEVVDLLRMVDEGQIDLTLVDSNELAMNQVYFPNVRVAFDLGDARSQSWAVAAGDDNSLLNEINSFLDKVEKNGTLQRLKDRYYGHVDVLGYVGAYTFAQHLQQRLPKYEKHFKASAKQEKLDWRLLAAVGYQESMWQAEVTSKTGVRGLMMLTQNTAQAMGVSNRLDPKQSISGGAKYLAYIKEQLDDKIEEPDRTWFALAAYNVGTGHLDDARKLAEKEGLNPNKWLDVKKMLPRLSQKQWYSKTRYGYARGGEPVHFVANIRRYYDILTWVTQPQLEGDQVAEGNLHVPGVNKTKPPEENPPLLEHHHHHH,soluble
7,MGSDKIHHHHHHMINTKEDFLLLIKQIEQKSGYKKPKAFGIARLDRGQLNKNKILQASFALINYEQNFGSAAIMLEAFMQRGVEIDFNASEFVQTLKLEDIDFALSCFKPFLEEDGHQNIDLLKIIKDKFKDDEFSFVCLFEDKEPLSVESIYLKLYLLSTKKVPLRSINLNGAFGLLSNVAWSDDKPIELEYLRANEMRLKMSNQYPKIDFVDKFPRFLAHIIPEDNTRILESSKVRMGASLAAGTTIMPGASYVNFNAGTTGACMVEGRISSSAIVGEGSDVGGGASILGVLSGTSGNAISVGKACLLGANSVTGIPLGDNCIVDAGIAVLEGTKFLLKDAEELAKLNPYFNFDKEIYKGLELKGLNGLHFRQDSISGAMIVALNKKAVKLNEALH,not soluble
8,MGHHHHHHSHMDSTTVNYFALFEVISHSFVRKLAPNEFPHKLYIQNYTSAVPGTCLTIRKWLFTTEEEILLNDNDLAVTYFFHQAVDDVKKGYIKAEEKSYQLQKLYEQRKMVMYLNMLRTCEGYNEIIFPHCACDSRRKGHVITAISITHFKLHACTEEGQLENQVIAFEWDEMQRWDTDEEGMAFCFEYARGEKKPRWVKIFTPYFNYMHECFERVFCELKWRKEEY,not soluble
9,MIRVIEKGDKVSLPFSRGILTRSITSVGIDVDLAYSIAIEVQEELVKKGKTIVTKDEIRKLTYQKLIEKGFKEEAKRYIFWRRFRKMKVPLIILLGGPTGVGKSTIATELAFRLGIRSVIGTDSIREVLRKIITPELLPTIHTSTFLAWKELKGTVTDSPIVAGFESQVSAVTVGINAIIERAVREGLNAIIEGIHVVPGFVKVEGEMTFMYMLIARSREDLEARFYERTRYSKRPADYYISHLDEILEIQDYLIRRAKKFNVPVIENVELEETVSKIMEDIMQKTIEIMKGKGLDLLEEP,soluble
10,MGSDKIHHHHHHMKGYFGPYGGQYVPEILMPALEELEAAYEEIMKDESFWKEFNDLLRDYAGRPTPLYFARRLSEKYGARIYLKREDLLHTGAHKINNAIGQVLLAKKMGKTRIIAETGAGQHGVATATAAALFGMECVIYMGEEDTIRQKPNVERMKLLGAKVVPVKSGSRTLKDAINEALRDWITNLQTTYYVIGSVVGPHPYPIIVRNFQKVIGEETKKQILEKEGRLPDYIVACVGGGSNAAGIFYPFIDSGVKLIGVEAGGEGLETGKHAASLLKGKIGYLHGSKTFVLQDDWGQVQVTHSVSAGLDYSGVGPEHAYWRETGKVLYDAVTDEEALDAFIELSRLEGIIPALESSHALAYLKKINIKGKVVVVNLSGRGDKDLESVLNHPYVRERIR,not soluble
11,MGSDKIHHHHHHMMADERIEVLKDILLELHHGASAESVQERFNQHFKGVSAIEISMMEHELMNADTGITFEDVMGLCNVHANLFKGAIADVDVPDAEQEGHPVKVFKDENLALRAAIMRIRRIIENYTKPENEDFRQEILKGLKHQFDLLGQFYHHYTRKEKLFFPIMERYGHDSPPKVMWGVDDDIRDLFKDAKATLAKLPDGSIEELSQKFEAFAKEFEEMIFKEEAILLMILLESFTQDDWLQIASESDAYGYAILKPTEKWIPHRESFDNEADADTSDNQLADALNQVQDANSPEGTNTKVINTPEGQFTITFKPKEKEAAADRTTQQPFGNGYLSVEQANLILNHLPLEITFVNKDDIFQYYNDSVPAAEMVFKRTPSQVGRNVELCHPPKVLDKVKKVFELLRNGQRDKVNMWFQSERLGKFVYVTYAAVRDQAGDFQGVLEYVQDIKPFFELDSEFNRDI,not soluble
12,MSATTKELGNSLWDSLFGTPGVQLTDDDIQNMPYASQYMQLNGGPQLFVVLAFAEDGQQKWVTQDQATLVTQHGRLVKTLLGGDNLIEVNNLAADPLIKPAQIVDGASWTRTMGWTEYQQVRYATARSVFKWDGTDTVKVGSDETPVRVLDEEVSTDQARWHNRYWIDSEGQIRQSEQYLGADYFPVKTTLIKAAKQLEHHHHHH,soluble
